# Laboratory results from US7119077B1, “Multimeric forms of members of the steroid/thyroid superfamily of receptors with the ultraspiracle receptor” (The Salk Institute for Biological Studies, priority 1990, dated 2006).
# T1: usp/PPAR heterodimer (Drosophila melanogaster / Rattus …, UniProt P20153;P37230 P20153:1-508,P37230:1-468)
# T1 sequence 1: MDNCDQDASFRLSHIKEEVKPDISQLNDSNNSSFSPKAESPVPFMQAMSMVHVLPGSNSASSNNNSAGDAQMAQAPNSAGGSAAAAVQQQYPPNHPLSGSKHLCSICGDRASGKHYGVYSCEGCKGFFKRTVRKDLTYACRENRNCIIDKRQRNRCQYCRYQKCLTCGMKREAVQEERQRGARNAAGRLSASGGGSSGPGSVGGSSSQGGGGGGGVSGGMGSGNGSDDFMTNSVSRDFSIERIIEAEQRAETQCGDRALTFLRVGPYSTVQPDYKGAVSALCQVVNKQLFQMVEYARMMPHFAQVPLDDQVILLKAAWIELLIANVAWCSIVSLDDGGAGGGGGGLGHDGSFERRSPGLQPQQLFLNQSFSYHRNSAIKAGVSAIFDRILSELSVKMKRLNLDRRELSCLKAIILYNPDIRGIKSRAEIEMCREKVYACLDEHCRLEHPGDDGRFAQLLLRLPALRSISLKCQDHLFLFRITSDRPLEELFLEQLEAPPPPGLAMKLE
# T1 sequence 2: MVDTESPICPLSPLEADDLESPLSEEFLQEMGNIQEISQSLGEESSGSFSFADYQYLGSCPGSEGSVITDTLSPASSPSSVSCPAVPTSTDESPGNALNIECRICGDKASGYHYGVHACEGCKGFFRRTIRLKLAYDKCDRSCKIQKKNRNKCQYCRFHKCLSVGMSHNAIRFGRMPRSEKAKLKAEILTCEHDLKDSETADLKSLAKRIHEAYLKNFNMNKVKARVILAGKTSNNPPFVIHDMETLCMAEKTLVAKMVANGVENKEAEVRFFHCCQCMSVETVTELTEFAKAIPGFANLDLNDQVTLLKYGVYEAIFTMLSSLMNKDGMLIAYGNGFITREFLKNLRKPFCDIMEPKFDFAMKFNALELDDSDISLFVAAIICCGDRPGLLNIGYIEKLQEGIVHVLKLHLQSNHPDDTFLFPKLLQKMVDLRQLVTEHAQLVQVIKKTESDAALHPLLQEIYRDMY
# T2: usp/VDR heterodimer (Drosophila melanogaster / Homo sapiens, UniProt P20153;P11473 P20153:1-508,P11473:1-427)
# T2 sequence 1: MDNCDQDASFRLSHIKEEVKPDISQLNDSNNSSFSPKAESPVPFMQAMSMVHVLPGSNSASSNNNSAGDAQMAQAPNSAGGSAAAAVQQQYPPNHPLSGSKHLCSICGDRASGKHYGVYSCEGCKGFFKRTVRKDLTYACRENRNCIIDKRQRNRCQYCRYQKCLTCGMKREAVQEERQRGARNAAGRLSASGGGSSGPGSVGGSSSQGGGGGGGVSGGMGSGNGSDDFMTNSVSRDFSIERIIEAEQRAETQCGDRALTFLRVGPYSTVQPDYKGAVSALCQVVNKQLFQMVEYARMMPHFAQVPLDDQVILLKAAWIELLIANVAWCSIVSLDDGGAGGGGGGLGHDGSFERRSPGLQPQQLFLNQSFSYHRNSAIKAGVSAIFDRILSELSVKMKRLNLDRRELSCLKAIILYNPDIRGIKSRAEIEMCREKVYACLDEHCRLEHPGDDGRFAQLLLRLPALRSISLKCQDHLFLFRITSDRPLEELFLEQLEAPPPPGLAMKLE
# T2 sequence 2: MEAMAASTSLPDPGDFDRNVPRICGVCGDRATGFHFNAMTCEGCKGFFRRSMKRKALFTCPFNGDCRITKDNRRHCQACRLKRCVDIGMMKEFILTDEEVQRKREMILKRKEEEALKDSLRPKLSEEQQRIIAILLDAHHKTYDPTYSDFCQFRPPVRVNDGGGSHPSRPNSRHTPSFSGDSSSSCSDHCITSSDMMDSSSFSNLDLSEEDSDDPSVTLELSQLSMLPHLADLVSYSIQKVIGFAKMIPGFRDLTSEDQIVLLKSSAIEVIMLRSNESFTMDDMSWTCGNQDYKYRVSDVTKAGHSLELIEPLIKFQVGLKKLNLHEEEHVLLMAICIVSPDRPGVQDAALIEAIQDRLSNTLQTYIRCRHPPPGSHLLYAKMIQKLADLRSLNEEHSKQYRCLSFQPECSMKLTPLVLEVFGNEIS
# Experiments:
# usp/PPAR heterodimer = target: T1, usp/PPAR heterodimer; assay: EMSA; high affinity; usp antibody supershift; settings: label: 32P
# Description: (§1) For gel mobility shift assay, proteins were incubated with binding buffer, which contained 100 mM KCl, 7.5% glycerol, 20 mM HEPES pH 7.5, 2 mM DTT and 0.1% NP-40, on ice for 20 minutes in the presence of 2 μg of nonspecific competitor poly dI-dC and other oligo competitors. Then approximately 1 ng of ^32P-dCTP probe, which was labelled to specific activity about 1-5×10^8 cpm/μg by fill-in reaction with Klenow fragments, was added to the reaction and incubated at room temperature for 20 minutes. Antiserum or preimmune serum was added 10 minutes after the probe was added. The reaction was then loaded into 5% non-denaturing polyacrylamide gel in 0.5×TBE running buffer [1×TBE comprises 0.089 M Tris borate, 0.089 M boric acid and 0.002 M EDTA]. After electrophoresis, the gel was dried for autoradiography.
# (§2) Using in vitro translated usp protein, interaction of usp with three mammalian nuclear receptors (TRβ, VDR and PPAR) was tested in gel mobility shift assays with the appropriate response element for each of the three receptors as the probes.
# usp/VDR heterodimer = target: T2, usp/VDR heterodimer; assay: EMSA; usp dependent; usp antibody supershift; settings: label: 32P
# Description: as §1, §2
Binder,binding result (usp/PPAR heterodimer),binding result (usp/VDR heterodimer)
AOX-PPARE (DR1) (dsDNA) DNA 1: AGGACAAAGGTCA DNA 2: TGACCTTTGTCCT,binds,–
"SPP1-VDRE (DR3, printed SSP1) (dsDNA) DNA 1: GGTTCACGAGGTTCA DNA 2: TGAACCTCGTGAACC",–,binds
